Test results from publication PMC12654638.

Target: carotenoependymin-Purple1 (Cep-Purple1) (Haliclona sp. (purple sponge))
Assay: SEC; HPLC size-exclusion chromatography (TSKgel G3000SWXL), calibrated with molecular standards; native protein estimated at 41-43 kDa against 23 kDa on SDS-PAGE

stoichiometry N: 2
Substance: carotenoependymin-Purple1 (Cep-Purple1) (natural protein)
